Experimental data from patent publication EP4745153A1, “GLP-1, GIP AND GCG RECEPTOR […] USE THEREOF” (Jiangsu Hengrui Pharmaceuticals Co., Ltd., priority 2023, dated 2025).
Starred links: 1 amine or outer side, 2 acyl side, 3 side chain; linkers in the order of their positions; H or OH if unused. Non-standard residues stand in square brackets, D forms with d. Groups on a side chain read outwards from the residue. No end group written: not given here. *: point of attachment. C20 diacid = O=C(O)CCCCCCCCCCCCCCCCCCC(=O)*; γGlu = O=C(O)[C@H](CCC(=O)[*:2])N[*:1]; αMeL = CC(C)C[C@](C)(N)C(=O)O; αMeK = C[C@](N)(CCCCN)C(=O)O; Iva = CC[C@](C)(N)C(=O)O; AEEA = NCCOCCOCC(=O)O; Aib = CC(C)(N)C(=O)O

T1: human GIPR (Homo sapiens, UniProt P48546)
T1 construct: expressed in transfected cells; host or cells: CHO-K1 clonal cell line
T1 sequence (P48546 22-466): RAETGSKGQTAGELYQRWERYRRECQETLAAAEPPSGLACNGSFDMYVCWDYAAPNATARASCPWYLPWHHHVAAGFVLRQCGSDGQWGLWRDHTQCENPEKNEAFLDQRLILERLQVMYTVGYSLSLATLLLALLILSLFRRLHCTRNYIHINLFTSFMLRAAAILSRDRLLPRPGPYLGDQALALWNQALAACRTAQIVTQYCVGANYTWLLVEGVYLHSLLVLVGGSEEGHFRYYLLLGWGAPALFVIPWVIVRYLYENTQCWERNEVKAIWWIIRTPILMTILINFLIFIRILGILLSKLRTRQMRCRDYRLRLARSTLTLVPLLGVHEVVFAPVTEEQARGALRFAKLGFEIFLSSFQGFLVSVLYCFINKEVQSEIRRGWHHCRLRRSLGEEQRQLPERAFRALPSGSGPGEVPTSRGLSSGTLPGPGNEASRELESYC

T2: human glucose-dependent insulinotropic polypeptide receptor (human, UniProt P48546 22-466)
T2 sequence (looked up): T1 sequence (P48546 22-466)

B1: Compound No. 0134 (peptide)
peptide: H[Aib]HGTFTSDLS[αMeK]ILEK([AEEA-AEEA-γGlu-C20 diacid])KAA[Iva]EFVEWLIEGGPSSGAPPPS-NH2
modifications: N-terminus assumed
SMILES: CC[C@H](C)[C@H](NC(=O)[C@H](CC(C)C)NC(=O)[C@H](Cc1c[nH]c2ccccc12)NC(=O)[C@H](CCC(=O)O)NC(=O)[C@@H](NC(=O)[C@H](Cc1ccccc1)NC(=O)[C@H](CCC(=O)O)NC(=O)[C@](C)(CC)NC(=O)[C@H](C)NC(=O)[C@H](C)NC(=O)[C@H](CCCCN)NC(=O)[C@H](CCCCNC(=O)COCCOCCNC(=O)COCCOCCNC(=O)CC[C@H](NC(=O)CCCCCCCCCCCCCCCCCCC(=O)O)C(=O)O)NC(=O)[C@H](CCC(=O)O)NC(=O)[C@H](CC(C)C)NC(=O)[C@@H](NC(=O)[C@](C)(CCCCN)NC(=O)[C@H](CO)NC(=O)[C@H](CC(C)C)NC(=O)[C@H](CC(=O)O)NC(=O)[C@H](CO)NC(=O)[C@@H](NC(=O)[C@H](Cc1ccccc1)NC(=O)[C@@H](NC(=O)CNC(=O)[C@H](Cc1c[nH]cn1)NC(=O)C(C)(C)NC(=O)[C@@H](N)Cc1c[nH]cn1)[C@@H](C)O)[C@@H](C)O)[C@@H](C)CC)C(C)C)C(=O)N[C@@H](CCC(=O)O)C(=O)NCC(=O)NCC(=O)N1CCC[C@H]1C(=O)N[C@@H](CO)C(=O)N[C@@H](CO)C(=O)NCC(=O)N[C@@H](C)C(=O)N1CCC[C@H]1C(=O)N1CCC[C@H]1C(=O)N1CCC[C@H]1C(=O)N[C@@H](CO)C(N)=O
B2: Compound No. 0133 (peptide)
peptide: H[Aib]HGTFTSDLS[αMeK]LLEK([AEEA-AEEA-γGlu-C20 diacid])KAA[Iva]EFVEWLIEGGPSSGAPPPS-NH2
modifications: N-terminus assumed
SMILES: CC[C@H](C)[C@H](NC(=O)[C@H](CC(C)C)NC(=O)[C@H](Cc1c[nH]c2ccccc12)NC(=O)[C@H](CCC(=O)O)NC(=O)[C@@H](NC(=O)[C@H](Cc1ccccc1)NC(=O)[C@H](CCC(=O)O)NC(=O)[C@](C)(CC)NC(=O)[C@H](C)NC(=O)[C@H](C)NC(=O)[C@H](CCCCN)NC(=O)[C@H](CCCCNC(=O)COCCOCCNC(=O)COCCOCCNC(=O)CC[C@H](NC(=O)CCCCCCCCCCCCCCCCCCC(=O)O)C(=O)O)NC(=O)[C@H](CCC(=O)O)NC(=O)[C@H](CC(C)C)NC(=O)[C@H](CC(C)C)NC(=O)[C@](C)(CCCCN)NC(=O)[C@H](CO)NC(=O)[C@H](CC(C)C)NC(=O)[C@H](CC(=O)O)NC(=O)[C@H](CO)NC(=O)[C@@H](NC(=O)[C@H](Cc1ccccc1)NC(=O)[C@@H](NC(=O)CNC(=O)[C@H](Cc1c[nH]cn1)NC(=O)C(C)(C)NC(=O)[C@@H](N)Cc1c[nH]cn1)[C@@H](C)O)[C@@H](C)O)C(C)C)C(=O)N[C@@H](CCC(=O)O)C(=O)NCC(=O)NCC(=O)N1CCC[C@H]1C(=O)N[C@@H](CO)C(=O)N[C@@H](CO)C(=O)NCC(=O)N[C@@H](C)C(=O)N1CCC[C@H]1C(=O)N1CCC[C@H]1C(=O)N1CCC[C@H]1C(=O)N[C@@H](CO)C(N)=O

Columns and labels:
[1] = target: T3, human GLP-1R (Homo sapiens, UniProt P43220); experiment: cAMP HTRF agonist activity assay in CHO-K1 cells expressing GLP-1R; type: cell-based; settings: read-out: Activity against human GLP-1R (EC50 nM); note: 5% FBS, 0.1% Casein
T3 construct: expressed in transfected cells; host or cells: CHO-K1 clonal cell line
Summary of the method: (§1)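 cAMP accumulation measured by competitive HTRF after 30 min incubation of polypeptides with 5000 receptor-expressing CHO-K1 cells/well at 37°C. Percent of maximal response versus concentration fitted to a four-parameter logistic to give relative EC50.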

[2] = target: T1, human GIPR; experiment: cAMP HTRF agonist activity assay in CHO-K1 cells expressing GIPR; type: cell-based; settings: read-out: Activity against human GIPR (EC50 nM); note: 5% FBS, 0.1% Casein
Summary of the method: as §1

[3] = target: T4, human GCGR (Homo sapiens, UniProt P47871); experiment: cAMP HTRF agonist activity assay in CHO-K1 cells expressing GCGR; type: cell-based; settings: read-out: Activity against human GCGR (EC50 nM); note: 5% FBS, 0.1% Casein
T4 construct: expressed in transfected cells; host or cells: CHO-K1 clonal cell line
Protocol: Functional activity was determined in CHO-K1 clonal cell lines expressing GIPR, GLP-1R, and GCGR. […] Each recipient cell (5000 cells/well) was added to an SV 96-well plate (Cisbio, 66PL96025) and incubated with the prepared polypeptide at 37°Cfor 30 min. The resulting increase in intracellular cAMP was quantitatively measured using the cAMP-GS dynamic HTRF assay kit (Cisbio, 62AM4PEJ). Briefly, the intracellular cAMP levels were determined by adding cAMP-d2 conjugate in cell lysis buffer, followed by the antibody anti-cAMP-Eu cryptate (also in cell lysis buffer).
Using the maximum response percentage vs. the added polypeptide concentration, the relative EC50 values were derived through nonlinear regression analysis and fitted to a four-parameter logarithmic equation. For specific data, refer to Tables 7-1 to 7-8 below. […]

[4] = In vivo efficacy in diet-induced obesity (DIO) mouse model; set-up: species or system C57BL/6J mice; settings: 10 nmol/kg subcutaneous once daily for 24 days
Source text: In this example, a DIO mouse model established by high-fat diet induction was used to evaluate the effects on and improvement of obesity and diabetes-related indicators in DIO mice after subcutaneous injection of some of the compounds in the present disclosure.
4.1 Experimental methods: Obese male C57BL/6J mice (23-24 weeks old, obtained from Beijing Vital River Laboratory Animal Technology Co., Ltd.) induced by a high-fat diet were purchased. Six-week-old male C57BL/6J mice were fed a 60% high-fat diet (RD D12492) until their body weight reached 45-50g to obtain DIO model mice. After arriving at the facility and undergoing a week of acclimatization feeding, the animals were randomly divided into groups according to their body weight and administered vehicle (model group), LY3437943, Compound 15, Compound 16, Compound 17 and Compound 18 via subcutaneous injection in the neck. The compound was administered at a dose of 10 nmol/kg, and the frequency of administration was once daily via subcutaneous injection for 24 days. Each group contained 5 DIO mice. According to the experimental design, the body weight of each mouse was weighed and recorded daily at 3 pm or before administration, the average body weight of each group of mice was calculated, and a curve of body weight change over time was plotted. After the experiment, the fat and other organs of the mice were removed from various parts of the body, weighed, and recorded.

[5] = In vivo efficacy in diet-induced obesity (DIO) rat model; settings: DIO rats
Protocol: In this experiment, a DIO rat model established on a 45% high-fat diet (HFD) was used to evaluate the effects of compounds on obesity-related indicators in DIO rats.
After one week of acclimatization, all rats were randomly divided into two groups: a normal group and a model group. The rats in the model group were then fed 45% HFD (Medison: MD12032), while the rats in the normal group were fed normal food. The body weight of the rats was measured weekly to monitor the modeling process.
DIO rats fed a high-fat diet for 37 weeks were weighed, and 75 DIO rats (approximately 1100g) and 8 rats (approximately 800g) on a normal diet (Chow diet) were selected and separated into individual cages. Each cage was fed approximately 100g of food at a time, and the food was changed every 48 hours. A preliminary sham dose experiment was then conducted. Subcutaneous acupuncture was performed on the neck once daily at 4 pm for 9 consecutive days. Body weight was measured before each acupuncture session and the effect of sham dose on body weight was observed. A curve of body weight changes over time was plotted. The formal dosing experiment was initiated after the body weight had stabilized.
Six Chow diet rats (weighing approximately 800g) and 30 HFD rats (weighing approximately 1100g) were selected through a preliminary sham dose experiment for subsequent dosing experiments. […] During the experiment, all rats were housed in single cages. The compound was dissolved in PBS solution at pH 7.4. On the day of grouping (Day 1), rats in each group were given the drug by subcutaneous injection in the neck according to their body weight, once daily (QD), as detailed in Table 9. […] The body weight was measured once daily at 15:00 or before administration, and a curve of body weight changes over time was plotted. Food intake: 1-7 days, measured once daily at 15:00 or before administration; 8-40 days, measured once every three days at 15:00 or before administration. A curve of changes in daily/cumulative food intake over time was plotted. Table 9. Dosing information for experimental groups

[6] = target: human glucagon-like peptide-1 receptor (human, UniProt P43220 24-463); experiment: cell-based or functional assay
[7] = target: T2, human glucose-dependent insulinotropic …; experiment: cell-based or functional assay
[8] = target: human glucagon receptor (human, UniProt P47871 26-477); experiment: cell-based or functional assay
[9] = after dose adjustment, 10 nmol/kg subcutaneous QD

Chain of human glucagon receptor (P47871 26-477): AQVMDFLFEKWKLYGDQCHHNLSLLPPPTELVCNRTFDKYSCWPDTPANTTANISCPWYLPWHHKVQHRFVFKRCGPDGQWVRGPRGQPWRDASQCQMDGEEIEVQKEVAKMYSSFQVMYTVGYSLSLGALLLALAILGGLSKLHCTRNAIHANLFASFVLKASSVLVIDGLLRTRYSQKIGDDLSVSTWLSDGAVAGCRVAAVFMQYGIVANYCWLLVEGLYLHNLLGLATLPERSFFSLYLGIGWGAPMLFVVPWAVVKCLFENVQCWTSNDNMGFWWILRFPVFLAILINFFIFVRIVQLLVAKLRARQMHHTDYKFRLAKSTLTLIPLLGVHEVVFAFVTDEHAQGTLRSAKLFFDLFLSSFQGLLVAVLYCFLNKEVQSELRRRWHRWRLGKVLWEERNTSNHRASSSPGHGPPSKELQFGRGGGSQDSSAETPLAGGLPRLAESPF
T4 sequence (P47871 26-477): as above
T3 sequence (P43220 24-463): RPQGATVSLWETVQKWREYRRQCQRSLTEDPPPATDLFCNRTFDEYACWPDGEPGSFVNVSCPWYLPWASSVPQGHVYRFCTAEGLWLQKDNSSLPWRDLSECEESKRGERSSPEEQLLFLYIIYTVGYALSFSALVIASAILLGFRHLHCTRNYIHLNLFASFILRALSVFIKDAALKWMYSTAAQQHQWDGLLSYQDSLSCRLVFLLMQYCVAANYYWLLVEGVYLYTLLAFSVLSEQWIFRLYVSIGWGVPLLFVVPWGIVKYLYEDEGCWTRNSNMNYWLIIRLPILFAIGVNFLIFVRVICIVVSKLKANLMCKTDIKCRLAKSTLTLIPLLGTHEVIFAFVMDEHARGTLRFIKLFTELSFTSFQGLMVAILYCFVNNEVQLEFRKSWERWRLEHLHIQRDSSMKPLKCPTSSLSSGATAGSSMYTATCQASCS

Molecule	Activity against human GLP-1R (EC50 nM) [6]	Activity against human GIPR (EC50 nM) [7]	Activity against human GCGR (EC50 nM) [8]	further results
CC[C@H](C)[C@H](NC(=O)[C@H](Cc1ccccc1)NC(=O)[C@H](C)NC(=O)C(C)(C)NC(=O)[C@H](CCC(N)=O)NC(=O)[C@H](C)NC(=O)[C@H](CCCCNC(=O)COCCOCCNC(=O)CC[C@H](NC(=O)CCCCCCCCCCCCCCCCCCC(=O)O)C(=O)O)NC(=O)[C@H](CCCCN)NC(=O)[C@H](CC(=O)O)NC(=O)[C@H](CC(C)C)NC(=O)[C@](C)(CC(C)C)NC(=O)[C@@H](NC(=O)[C@H](CO)NC(=O)[C@H](Cc1ccc(O)cc1)NC(=O)[C@H](CC(=O)O)NC(=O)[C@H](CO)NC(=O)[C@@H](NC(=O)[C@H](Cc1ccccc1)NC(=O)[C@@H](NC(=O)CNC(=O)[C@H](CCC(N)=O)NC(=O)C(C)(C)NC(=O)[C@@H](N)Cc1ccc(O)cc1)[C@@H](C)O)[C@@H](C)O)[C@@H](C)CC)C(=O)N[C@@H](CCC(=O)O)C(=O)N[C@@H](Cc1ccc(O)cc1)C(=O)N[C@@H](CC(C)C)C(=O)N[C@@H](CC(C)C)C(=O)N[C@@H](CCC(=O)O)C(=O)NCC(=O)NCC(=O)N1CCC[C@H]1C(=O)N[C@@H](CO)C(=O)N[C@@H](CO)C(=O)NCC(=O)N[C@@H](C)C(=O)N1CCC[C@H]1C(=O)N1CCC[C@H]1C(=O)N1CCC[C@H]1C(=O)N[C@@H](CO)C(N)=O [LY3437943, reference compound]	–	–	–	EC50 [1]: 0.08 nM; EC50 [2]: 0.002 nM; EC50 [3]: 0.412 nM; body weight of DIO mice compared with the test group given the vehicle [4]: significant reduction in body weight; body weight reduction at the experimental endpoint ([4]; DIO mice): 30.4%; 24h food intake compared with the model group [5, 9]: significantly reduced; cumulative food intake compared with the model group [5, 9]: significantly reduced; cumulative food intake ([5]; entire administration period (before and after dose adjustment), 1 then 10 nmol/kg subcutaneous QD): 273.8 ± 15.0 g; body weight loss at the end of the experiment ([5]; subcutaneous QD, 1 nmol/kg adjusted to 10 nmol/kg from day 15): 29.4%
H[Aib]HGTFTSDYSILLEK([AEEA-AEEA-γGlu-C20 diacid])KAA[Iva]EFVEWLLAGGPSSGAPPPS-NH2 [Compound No. 0135]	0.013 nM	0.001 nM	0.019 nM	–
B1	0.017 nM	0.002 nM	0.025 nM	–
B2	0.016 nM	0.002 nM	0.03 nM	–
H[Aib]HGTFTSDYSI[αMeL]LEK([AEEA-AEEA-γGlu-C20 diacid])KAA[Iva]EFVEWLLAGGPSSGAPPPS-NH2 [Compound No. 0137]	0.013 nM	0.001 nM	0.047 nM	–
H[Aib]HGTFTSDLSI[αMeL]LEK([AEEA-AEEA-γGlu-C20 diacid])KAA[Iva]EFVEWLLAGGPSSGAPPPS-NH2 [Compound No. 0138]	0.019 nM	0.0006 nM	0.055 nM	–
